Ends that are not written are not given here.
Tests used:
[1] = Monitoring DGC in blood serum by ex vivo NIR-II imaging; design: species or system C57BL/6J mice; details: NIR-II imaging and ICP-MS quantification of DGC in mouse serum after tail vein injection
Protocol: The C57BL/6J mice (male and female) were injected with DGC (20 mg/kg) through the tail vein (n = 3). After injection, the blood samples were collected at 0.083, 0.25, 0.5, 1, 2, 4, 8, 10, 12, 24, and 48 h through the posterior orbital vein of the mice. The serum was obtained by centrifugation (1200×g for 5 min) to remove blood cells. The serum samples were observed through the In vivo Master (Grand-imaging Technology) equipped with an InGaAs camera C-RED2 (Firstlight) (λ ex = 808 nm, 1000 nm longpass (LP) filter (Edmund Optics)) camera to obtain the NIR-II image (exposure time: 50 ms). ImageJ software was used to process and analyze the images obtained in the experiment, and the DGC content in the sample was evaluated according to the fluorescence intensity of the sample.

[2] = tested on: SH-SY5Y cells; assay: Cytotoxicity of DGC (CCK-8); assay type: cell-based; design: key to Cell viability: viability relative to control cells (control = 1); details: for Cell viability: 24 h, CCK-8, normalized to control
Protocol: U87MG, SH-SY5Y, and CTX TNA2 cells were seeded into 96-well plates at a density of 5 × 10^3 cells per well and were incubated at 37 °C for 24 h. […] Next, 10 µL of a colorimetric Cell Counting Kit (CCK-8) reagent diluted with 100 µL medium was added to each well, and incubated for 30 min, The absorbance at 450 nm was measured using a microplate reader (Molecular Devices, San Jose, CA, USA). The relative viability was normalized to control cells. The experiment was performed in triplicates.

[3] = target: T1, CTGF (Mus musculus, UniProt P29268); assay: Ex vivo NIR-II imaging of perfused brains after DGC injection; assay type: in vivo, APP/PS1 mice; details: 20 mg/kg i.v., saline perfusion, relative to 1 month
T1 construct: brain sections of the age-matched wild-type C57BL/6J mice were used as controls; from tissue; host or cells: brain of APP/PS1 transgenic and wild-type C57BL/6J mice (sections, living animal, perfused isolated brain)
T1 sequence (P29268 26-348): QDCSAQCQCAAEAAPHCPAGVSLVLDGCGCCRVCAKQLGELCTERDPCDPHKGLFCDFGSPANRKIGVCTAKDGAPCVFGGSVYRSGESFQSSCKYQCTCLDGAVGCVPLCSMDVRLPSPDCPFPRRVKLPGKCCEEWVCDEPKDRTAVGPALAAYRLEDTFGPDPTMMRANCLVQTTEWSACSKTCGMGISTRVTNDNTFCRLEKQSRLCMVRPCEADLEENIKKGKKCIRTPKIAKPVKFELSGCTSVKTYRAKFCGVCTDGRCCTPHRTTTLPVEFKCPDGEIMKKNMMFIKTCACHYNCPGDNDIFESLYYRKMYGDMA
Protocol: Mice were then perfused intracardially with saline and 4% PFA, and major organs (including the brain, heart, liver, spleen, lung, and kidney were isolated. The dissociated brains were performed NIR-II imaging ex vivo using the same method as in vivo imaging (n = 3). All isolated organs were also imaged by the NIR-II imaging system (λ ex = 808 nm, 1000 nm longpass (LP) filter (Edmund Optics)). And then, the brains were kept in 4% PFA overnight and embedded with paraffin. Sections with 5-μm thickness were cut and analyzed by immunostaining with antibodies to CTGF (dilution 1: 50, Abcam, Cat#ab6992), GFAP (dilution 1:100, Proteintech, Cat#16825-1-AP), CD31 (dilution 1:200, Beyotime, Cat#AF6408), Neun (dilution 1:300, abcam, Cat# ab177487), and Iba 1 (dilution 1:50, Beyotime, Cat# AF7143), respectively.

[4] = Absolute quantum yield, integrated sphere technique; assay type: physicochemical
Protocol: Figure R6. Stability of DGC in AD brains. Monitoring fluorescence intensity of DGC in brain of WT mice and 3-month-old APP/PS1 mice for 24 h (left). In vivo and ex vivo NIR-II imaging of brains after DGC injected for 24 h (right).
The absolute quantum yield (QY) of DGC probe was measured to be ~0.7% using an […]
for biological applications. Although this QY is not high, but sufficient to produce a bright signal in the AD mouse brain for detection in vivo in this study.
Reviewer 3: The co-localization coefficient should be calculated in Figure 2d. […]
was calculated by Image J software. The co-localization coefficient (Pearson's correlation coefficient) of DGC and CTGF antibodies in Figure 2d was 0.946 (Fig. R15).
Figure R15. The co-localization coefficient (Pearson's correlation coefficient) of DGC and CTGF […]

For “DGC: CTGF-targeting peptide-coated gold nanocluster: one Au26 gold nanocluster coated by eight DAG cyclic peptides, NIR-II and red fluorescence (CDAGRKQKC; also: cyclic peptide, ring not given here, eight peptides on one Au26 nanocluster via Cys Au-S bonds)”, the “stability in blood circulation” value [1] was “high stability during internal circulation”, the Cell viability ([2]; 5 μM (Au content), replicate 1) was 1.078 and the Cell viability ([2]; 5 μM (Au content), replicate 2) was 1.039. The Cell viability ([2]; 5 μM (Au content), replicate 3) was 1.074, the Cell viability ([2]; 10 μM (Au content), replicate 1) was 0.9372 and the Cell viability ([2]; 10 μM (Au content), replicate 2) was 1.045. It also gave a Cell viability ([2]; 10 μM (Au content), replicate 3) of 1.038, a Cell viability ([2]; 20 μM (Au content), replicate 1) of 1.029 and a Cell viability ([2]; 20 μM (Au content), replicate 2) of 1.021. It also gave a Cell viability ([2]; 20 μM (Au content), replicate 3) of 1.039, a Cell viability ([2]; 50 μM (Au content), replicate 1) of 1.012 and a Cell viability ([2]; 50 μM (Au content), replicate 2) of 1.009. The Cell viability ([2]; 50 μM (Au content), replicate 3) was 1.025, the Cell viability ([2]; 100 μM (Au content), replicate 1) was 0.9429 and the Cell viability ([2]; 100 μM (Au content), replicate 2) was 0.9751. For the same substance, the Cell viability ([2]; 100 μM (Au content), replicate 3) was 1.036, the Cell viability ([2]; 200 μM (Au content), replicate 1) was 0.977 and the Cell viability ([2]; 200 μM (Au content), replicate 2) was 1.039. The Cell viability ([2]; 200 μM (Au content), replicate 3) was 0.9912, the Cell viability ([2]; 500 μM (Au content), replicate 1) was 0.9817 and the Cell viability ([2]; 500 μM (Au content), replicate 2) was 0.9959. The Cell viability ([2]; 500 μM (Au content), replicate 3) was 1.057, the cytotoxicity ([2]; DGC incubation 24 h, CCK-8) was “did not cause any obvious cytotoxicity” and the “ex vivo NIR-II fluorescence (FL) intensity in brain” value (shortened to “ex vivo NIR-II fluorescence”) ([3]; 1-month-old APP/PS1 mice, brain 1) was 1. For the same substance, the “ex vivo NIR-II fluorescence” value ([3]; 1-month-old APP/PS1 mice, brain 2) was 1, the “ex vivo NIR-II fluorescence” value ([3]; 1-month-old APP/PS1 mice, brain 3) was 1 and the “ex vivo NIR-II fluorescence” value ([3]; 2-month-old APP/PS1 mice, brain 1) was 1.473. The “ex vivo NIR-II fluorescence” value ([3]; 2-month-old APP/PS1 mice, brain 2) was 1.458, the “ex vivo NIR-II fluorescence” value ([3]; 2-month-old APP/PS1 mice, brain 3) was 1.501 and the “ex vivo NIR-II fluorescence” value ([3]; 3-month-old APP/PS1 mice, brain 1) was 1.722. The “ex vivo NIR-II fluorescence” value ([3]; 3-month-old APP/PS1 mice, brain 2) was 1.714, the “ex vivo NIR-II fluorescence” value ([3]; 3-month-old APP/PS1 mice, brain 3) was 1.766 and the “ex vivo NIR-II fluorescence” value ([3]; 6-month-old APP/PS1 mice, brain 1) was 2.766. The “ex vivo NIR-II fluorescence” value ([3]; 6-month-old APP/PS1 mice, brain 2) was 2.744, the “ex vivo NIR-II fluorescence” value ([3]; 6-month-old APP/PS1 mice, brain 3) was 2.849 and the “ex vivo NIR-II fluorescence” value ([3]; 9-month-old APP/PS1 mice, brain 1) was 3.728. The “ex vivo NIR-II fluorescence” value ([3]; 9-month-old APP/PS1 mice, brain 2) was 3.62, the “ex vivo NIR-II fluorescence” value ([3]; 9-month-old APP/PS1 mice, brain 3) was 3.948 and the “absolute quantum yield (QY)” value [4] was ~ 0.7%.

Reference: article PMC11169542, “A probe for NIR-II imaging and multimodal analysis of early Alzheimer’s disease by targeting CTGF” (Nature Communications, 2024)
